In patent US6426205 (MOUNT SINAI HOSPITAL, dated 2002):

T1: Cdc53-Y48W, M49E^MYC6 (Saccharomyces cerevisiae, UniProt Q12018 1-815)
T1 construct: also called mutant Cdc53; pMT1939-1943
T1 sequence: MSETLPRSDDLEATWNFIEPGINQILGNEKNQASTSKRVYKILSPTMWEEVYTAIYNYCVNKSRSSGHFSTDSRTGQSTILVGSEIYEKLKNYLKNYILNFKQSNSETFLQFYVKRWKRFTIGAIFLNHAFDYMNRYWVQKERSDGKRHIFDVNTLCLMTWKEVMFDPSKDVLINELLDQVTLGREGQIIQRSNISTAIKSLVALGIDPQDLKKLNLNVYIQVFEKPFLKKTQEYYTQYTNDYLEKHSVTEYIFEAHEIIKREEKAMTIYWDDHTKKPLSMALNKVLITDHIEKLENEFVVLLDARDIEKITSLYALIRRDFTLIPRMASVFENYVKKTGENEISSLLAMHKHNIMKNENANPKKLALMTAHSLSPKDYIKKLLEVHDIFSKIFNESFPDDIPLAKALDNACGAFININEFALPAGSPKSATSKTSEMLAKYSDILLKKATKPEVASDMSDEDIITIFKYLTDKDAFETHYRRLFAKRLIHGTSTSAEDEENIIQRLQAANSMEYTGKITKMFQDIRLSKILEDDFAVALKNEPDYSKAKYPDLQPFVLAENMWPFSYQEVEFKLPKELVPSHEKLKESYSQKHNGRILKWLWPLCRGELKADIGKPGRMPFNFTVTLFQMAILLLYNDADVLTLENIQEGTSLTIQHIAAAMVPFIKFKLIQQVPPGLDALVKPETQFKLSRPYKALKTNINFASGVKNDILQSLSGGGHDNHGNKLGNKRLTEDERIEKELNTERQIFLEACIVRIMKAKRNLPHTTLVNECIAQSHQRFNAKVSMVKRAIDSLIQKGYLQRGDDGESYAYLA

T2: MYC-tagged Cdc53 (Saccharomyces cerevisiae, UniProt Q12018 1-815)
T2 construct: Expressed from the wild type promoter on a CEN plasmid in yeast and immunoprecipitated with 9E10 anti-MYC; also called Cdc53^M; Cdc53^MYC6
T2 sequence: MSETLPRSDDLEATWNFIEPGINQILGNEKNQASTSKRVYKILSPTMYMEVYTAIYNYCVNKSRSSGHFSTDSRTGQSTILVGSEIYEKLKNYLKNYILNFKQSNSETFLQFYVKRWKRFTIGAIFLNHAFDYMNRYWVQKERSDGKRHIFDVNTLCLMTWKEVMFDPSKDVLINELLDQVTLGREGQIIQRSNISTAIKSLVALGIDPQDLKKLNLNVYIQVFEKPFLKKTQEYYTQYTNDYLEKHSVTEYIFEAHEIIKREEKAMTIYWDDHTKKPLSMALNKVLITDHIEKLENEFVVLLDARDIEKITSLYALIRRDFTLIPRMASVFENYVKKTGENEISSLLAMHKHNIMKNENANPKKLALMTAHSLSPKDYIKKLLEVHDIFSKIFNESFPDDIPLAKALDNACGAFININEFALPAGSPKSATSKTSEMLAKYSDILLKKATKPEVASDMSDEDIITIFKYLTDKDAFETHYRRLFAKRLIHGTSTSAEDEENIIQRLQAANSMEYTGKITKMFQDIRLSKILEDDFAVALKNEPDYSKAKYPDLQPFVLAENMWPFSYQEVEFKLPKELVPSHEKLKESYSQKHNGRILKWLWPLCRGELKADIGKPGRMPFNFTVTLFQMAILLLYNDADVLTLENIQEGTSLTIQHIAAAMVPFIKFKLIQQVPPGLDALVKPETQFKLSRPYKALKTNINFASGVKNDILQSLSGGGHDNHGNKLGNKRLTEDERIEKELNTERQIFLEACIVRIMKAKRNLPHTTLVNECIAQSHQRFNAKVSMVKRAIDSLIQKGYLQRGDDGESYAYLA

T3: Cdc53 with deletion of residues 448-748 (MYC-tagged) (Saccharomyces cerevisiae, UniProt Q12018 1-815)
T3 construct: The limits of the text are used here; also called Cdc53 internal deletion
T3 sequence: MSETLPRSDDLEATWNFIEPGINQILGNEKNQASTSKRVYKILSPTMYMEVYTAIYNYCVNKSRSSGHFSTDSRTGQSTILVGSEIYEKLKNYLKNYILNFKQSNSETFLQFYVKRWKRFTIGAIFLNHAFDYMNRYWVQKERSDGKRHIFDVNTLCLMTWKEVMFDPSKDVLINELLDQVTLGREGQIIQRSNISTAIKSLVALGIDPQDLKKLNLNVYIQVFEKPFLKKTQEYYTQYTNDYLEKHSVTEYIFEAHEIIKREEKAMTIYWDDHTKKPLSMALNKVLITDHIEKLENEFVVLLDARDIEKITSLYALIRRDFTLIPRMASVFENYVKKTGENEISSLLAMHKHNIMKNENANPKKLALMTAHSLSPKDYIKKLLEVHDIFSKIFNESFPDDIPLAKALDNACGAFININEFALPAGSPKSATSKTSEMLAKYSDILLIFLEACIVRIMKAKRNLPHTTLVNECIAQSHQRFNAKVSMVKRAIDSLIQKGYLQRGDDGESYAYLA

T4: Cdc53^Δ9-280 (MYC-tagged) (Saccharomyces cerevisiae, UniProt Q12018 1-815)
T4 construct: Deletion built with natural and engineered restriction sites; also called CDC53^MΔ9-280; pMT1850
T4 sequence: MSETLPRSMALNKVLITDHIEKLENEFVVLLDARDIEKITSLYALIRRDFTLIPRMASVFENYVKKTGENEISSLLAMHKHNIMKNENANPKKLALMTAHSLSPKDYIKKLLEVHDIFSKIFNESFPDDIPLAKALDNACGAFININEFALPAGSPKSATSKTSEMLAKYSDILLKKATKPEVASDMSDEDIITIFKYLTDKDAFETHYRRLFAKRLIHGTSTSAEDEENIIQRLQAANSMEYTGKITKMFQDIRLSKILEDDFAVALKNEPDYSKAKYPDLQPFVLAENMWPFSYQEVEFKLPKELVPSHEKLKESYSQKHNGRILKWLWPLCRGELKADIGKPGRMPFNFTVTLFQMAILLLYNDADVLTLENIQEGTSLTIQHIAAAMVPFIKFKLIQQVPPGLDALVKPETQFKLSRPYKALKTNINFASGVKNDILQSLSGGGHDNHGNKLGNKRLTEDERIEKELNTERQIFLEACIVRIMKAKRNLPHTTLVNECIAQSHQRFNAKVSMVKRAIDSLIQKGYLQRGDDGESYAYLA

B1: Cdc34 (enzyme, budding yeast, UniProt P14682 1-295, looked up)
chain: MSSRKSTASSLLLRQYRELTDPKKAIPSFHIELEDDSNIFTWNIGVMVLNEDSIYHGGFFKAQMRFPEDFPFSPPQFRFTPAIYHPNVYRDGRLCISILHQSGDPMTDEPDAETWSPVQTVESVLISIVSLLEDPNINSPANVDAAVDYRKNPEQYKQRVKMEVERSKQDIPKGFIMPTSESAYISQSKLDEPESNKDMADNFWYDSDLDDDENGSVILQDDDYDDGNNHIPFEDDDVYNYNDNDDDDERIEFEDDDDDDDDSIDNDSVMDRKQPHKAEDESEDVEDVERVSKKI
notes: Endogenous protein in yeast lysates, detected with anti-Cdc34 antibodies; also called endogenous Cdc34

Key:
Cdc53-Y48W, M49E^MYC6 = biological target: T1, Cdc53-Y48W, M49E^MYC6; assay: anti-MYC immunoprecipitation from yeast lysate, western blot
Experimental: This powder was thawed, spun to remove cellular debris, and cleared by spinning in ultracentrifuge. Protein concentration in the lysate was adjusted to 24 mg/ml in a volume of 1.25 ml lysis buffer+10 mM N-ethyl maleimide, for a final mass of 30 mg protein for each strain. 25 µl of a 50% slurry in lysis buffer of protein-A beads (Pierce) cross-linked with dimethyl suberimidate to the anti-MYC monoclonal antibody 9E10 was added to each lysate, incubated with gentle rocking at 4° C. for several hours, washed several times with lysis buffer, aspirated, resuspended in protein sample buffer, and run on two 10% polyacrylamide gels. One gel was transferred to polyvinylidene fluoride membrane and western blotted with anti-MYC, anti-Cdc34, and anti-Skp1 antibodies (FIG. 12A).

MYC-tagged Cdc53 = biological target: T2, MYC-tagged Cdc53; assay: anti-MYC immunoprecipitation from yeast lysate, immunoblot
[1] = biological target: T3, Cdc53 with deletion of residues 448-748 …; assay: as above
[2] = biological target: T4, Cdc53^Δ9-280 (MYC-tagged); assay: as above
Cdc34 = biological target: B1; assay: as above
Skp1 = biological target: T5, Skp1 (budding yeast); assay: as above
T5 construct: Endogenous protein in yeast lysates, detected with anti-Skp1 antibodies; also called endogenous Skp1
T5 sequence (chain, as listed by the source limits assumed): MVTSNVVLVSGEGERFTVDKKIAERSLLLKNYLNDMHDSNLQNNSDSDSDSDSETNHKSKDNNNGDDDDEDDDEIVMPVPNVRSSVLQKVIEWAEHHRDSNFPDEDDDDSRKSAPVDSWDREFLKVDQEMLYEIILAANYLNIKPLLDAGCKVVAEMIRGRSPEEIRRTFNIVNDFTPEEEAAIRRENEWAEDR

binding result (Cdc53-Y48W, M49E^MYC6) | binding result (MYC-tagged Cdc53) | binding result [1] | binding result [2] | binding result (Cdc34) | binding result (Skp1) | Binder
binds | binds | no binding | binds | – | – | B1
– | – | – | – | binds | binds | Cdc53 with IVRIMK (residues 755-760) mutated to polyalanine (MYC-tagged) (other, not shown: small tags and cut ends, also called CDC53^MIVRIMK; pMT1859) MSETLPRSDDLEATWNFIEPGINQILGNEKNQASTSKRVYKILSPTMYMEVYTAIYNYCVNKSRSSGHFSTDSRTGQSTILVGSEIYEKLKNYLKNYILNFKQSNSETFLQFYVKRWKRFTIGAIFLNHAFDYMNRYWVQKERSDGKRHIFDVNTLCLMTWKEVMFDPSKDVLINELLDQVTLGREGQIIQRSNISTAIKSLVALGIDPQDLKKLNLNVYIQVFEKPFLKKTQEYYTQYTNDYLEKHSVTEYIFEAHEIIKREEKAMTIYWDDHTKKPLSMALNKVLITDHIEKLENEFVVLLDARDIEKITSLYALIRRDFTLIPRMASVFENYVKKTGENEISSLLAMHKHNIMKNENANPKKLALMTAHSLSPKDYIKKLLEVHDIFSKIFNESFPDDIPLAKALDNACGAFININEFALPAGSPKSATSKTSEMLAKYSDILLKKATKPEVASDMSDEDIITIFKYLTDKDAFETHYRRLFAKRLIHGTSTSAEDEENIIQRLQAANSMEYTGKITKMFQDIRLSKILEDDFAVALKNEPDYSKAKYPDLQPFVLAENMWPFSYQEVEFKLPKELVPSHEKLKESYSQKHNGRILKWLWPLCRGELKADIGKPGRMPFNFTVTLFQMAILLLYNDADVLTLENIQEGTSLTIQHIAAAMVPFIKFKLIQQVPPGLDALVKPETQFKLSRPYKALKTNINFASGVKNDILQSLSGGGHDNHGNKLGNKRLTEDERIEKELNTERQIFLEACAAAAAAAKRNLPHTTLVNECIAQSHQRFNAKVSMVKRAIDSLIQKGYLQRGDDGESYAYLA
